Values of other authors, collected in publication PMC6722209.

Assays:
[1] = target: IgG1 Fc Fc (Homo sapiens) [IgG part: P01857]; assay: ITC and SPR
[2] = target: IgG1 Fc Fc (Homo sapiens) [IgG part: P01857]; assay: fluorescence anisotropy

Chain of TRIM21 PRYSPRY (P19474 268-465): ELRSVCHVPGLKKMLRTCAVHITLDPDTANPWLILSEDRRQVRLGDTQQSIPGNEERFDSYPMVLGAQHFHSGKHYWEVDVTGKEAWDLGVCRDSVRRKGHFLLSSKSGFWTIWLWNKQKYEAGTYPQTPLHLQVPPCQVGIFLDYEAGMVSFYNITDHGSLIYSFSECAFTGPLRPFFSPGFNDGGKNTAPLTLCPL
Chain of TRIM21 (P19474 whole entry): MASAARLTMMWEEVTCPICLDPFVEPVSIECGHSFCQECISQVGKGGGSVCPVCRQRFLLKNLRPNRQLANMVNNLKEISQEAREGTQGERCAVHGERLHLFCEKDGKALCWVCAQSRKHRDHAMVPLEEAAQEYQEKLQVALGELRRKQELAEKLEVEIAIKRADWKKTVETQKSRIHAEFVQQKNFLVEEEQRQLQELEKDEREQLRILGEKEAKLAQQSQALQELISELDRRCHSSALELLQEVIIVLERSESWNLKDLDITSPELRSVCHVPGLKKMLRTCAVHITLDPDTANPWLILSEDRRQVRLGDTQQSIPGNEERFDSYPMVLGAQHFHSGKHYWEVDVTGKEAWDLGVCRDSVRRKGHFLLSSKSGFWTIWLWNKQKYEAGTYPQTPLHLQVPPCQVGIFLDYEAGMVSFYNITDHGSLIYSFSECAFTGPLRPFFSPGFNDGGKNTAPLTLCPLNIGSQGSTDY

TRIM21 PRYSPRY (from UniProt P19474)
Kd [1]: 175 nM

TRIM21 (from UniProt P19474)
Kd [2]: 0.6 nM
